The target in test [1] is T1, TGF-β1 (human, UniProt P01137 279-390).
T1 construct: Bought protein; also called human TGF-β1; TGF-β1 protein
Briefly: indirect ELISA, TGF-β1 coated at 1 µg/mL. On the technique in general: ELISA stands for enzyme-linked immunosorbent assay.

Another test has as its target T2, TGF-β2 (UniProt P61812 303-414).
T2 construct: Bought protein; also called TGF-β2 protein
T2 sequence (looked up): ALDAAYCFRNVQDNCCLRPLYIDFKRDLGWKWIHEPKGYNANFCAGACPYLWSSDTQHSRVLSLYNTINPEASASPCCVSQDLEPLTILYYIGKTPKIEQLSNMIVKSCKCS
The experiment in a line: indirect ELISA, TGF-β2 coated at 2 µg/mL.

The target in test [2] is T1, TGF-β1. The experiment in a line: competition ELISA vs TGF-βRII-His-Biotin 0.01 µg/mL on coated TGF-β1.

B1: TGF-βRII-mFc (Fc fusion, UniProt P37173 23-159, looked up, not shown: a dimerising Fc or GST)
chain: TIPPHVQKSVNNDMIVTDNNGAVKFPQLCKFCDVRFSTCDNQKSCMSNCSITSICEKPQEVCVAVWRKNDENITLETVCHDPKLPYHDFILEDAASPKCIMKEKKKPGETFFMCSCSSDECNDNIIFSEEYNTSNPD
notes: also called TGF-βR2-mFc
Consider B1, for which the figures for the concentration for a half-maximal effect (EC50) in the test with TGF-β1 [1], with TGF-β2 and in the test with TGF-β1 [2] were 0.356 nM, 1.03 nM and 6.47 nM, respectively.

Values taken from patent publication US20250129156A1 (AKESO BIOPHARMA, published 2025).
